Assay results as given in US20250304624A1 (published 2025).
Positions of bridges follow the written chain, without caps; N, C: chain ends. Non-standard residues stand in square brackets, D forms with d. Groups on a side chain read outwards from the residue. *: point of attachment. PEG12 = NCCOCCOCCOCCOCCOCCOCCOCCOCCOCCOCCOCCOCCC(=O)O; Dip = N[C@H](C(=O)O)C(c1ccccc1)c1ccccc1; Palmitoyl = CCCCCCCCCCCCCCCC(=O)*; Isovaleryl = CC(C)CC(=O)*

Target: T1, human ferroportin (SLC40A1) fused in frame with GFP, stably expressed in HEK293 cells (human, UniProt Q9NP59 1-571)
T1 sequence (looked up): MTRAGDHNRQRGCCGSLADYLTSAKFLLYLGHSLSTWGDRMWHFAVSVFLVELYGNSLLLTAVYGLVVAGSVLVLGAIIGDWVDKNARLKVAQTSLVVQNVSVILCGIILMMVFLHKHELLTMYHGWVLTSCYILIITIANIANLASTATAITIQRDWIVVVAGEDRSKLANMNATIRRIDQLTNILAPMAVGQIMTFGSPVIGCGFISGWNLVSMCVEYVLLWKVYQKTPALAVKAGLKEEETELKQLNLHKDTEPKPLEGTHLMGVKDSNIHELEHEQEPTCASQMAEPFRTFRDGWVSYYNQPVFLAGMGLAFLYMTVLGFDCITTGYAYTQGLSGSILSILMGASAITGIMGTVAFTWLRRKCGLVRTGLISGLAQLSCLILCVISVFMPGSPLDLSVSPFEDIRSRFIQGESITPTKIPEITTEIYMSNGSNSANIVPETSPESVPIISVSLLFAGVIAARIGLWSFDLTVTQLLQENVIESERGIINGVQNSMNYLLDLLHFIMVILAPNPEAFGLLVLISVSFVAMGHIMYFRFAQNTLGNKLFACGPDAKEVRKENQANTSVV
Test: cell-based or functional assay

B1: Compd ID 130 (peptide)
peptide: Isovaleryl-DIH[Dip]PCI[dK]FK([PEG12-Palmitoyl])[dK]C-NH2
modifications: disulfide 6-12 (inferred)
FPN IC50: 69 nM
